This data set has as its system T1, His-OsWOX3A (Oryza sativa), ORF:198cabac.
T1 sequence: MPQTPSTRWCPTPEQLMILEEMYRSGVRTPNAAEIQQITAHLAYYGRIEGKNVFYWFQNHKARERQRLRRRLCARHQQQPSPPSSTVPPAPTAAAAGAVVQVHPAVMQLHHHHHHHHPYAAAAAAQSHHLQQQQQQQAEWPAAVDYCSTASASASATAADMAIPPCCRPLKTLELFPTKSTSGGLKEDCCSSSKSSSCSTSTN
Description: EMSA. The conditions noted are these: 10 mM Tris pH 7.5, 50 mM KCl, 1 mM DTT (from 10x buffer) plus about 50 mM KCl, 5 mM MgCl2, 10 mM EDTA, 2.5% glycerol, 0.05% NP-40, 50 ng/ul poly(dG-dC); room …. (In general: Mobility shift assays separate free from complexed probe on a gel.)

As to “TACAAAACTCACTACTAGTAATTAAGTGTTGAGGGTTCGAGAACAAATTAATTAATCGCCAAATAATGCATCACAAACATCATCAACCTAGTTATCGGTT (double strand) [KAO-W1]”, the binding result is “binds”.
